Read-outs that look alike come from different tables or passages of the source.
B1: T. aurantiacus GH61A polypeptide: GH61A polypeptide having cellulolytic enhancing activity (SEQ ID NO: 14), recombinantly prepared in Aspergillus oryzae JaL250 (protein, listed as Thermoascus aurantiacus)
chain: MSFSKIIATAGVLASASLVAGHGFVQNIVIDGKYYGGYLVNQYPYMSNPPEVIAWSTTATDLGFVDGTGYQTPDIICHRGAKPGALTAPVSPGGTVELQWTPWPDSHHGPVINYLAPCNGDCSTVDKTQLEFFKIAESGLINDDNPPGIWASDNLIAANNSWTVTIPTTIAPGNYVLRHEIIALHSAQNQDGAQNYPQCINLQVTGGGSDNPAGTLGTALYHDTDPGILINIYQKLSSYIIPGPPLYTG

Experiments:
[1] = tested on: Trichoderma reesei cellulase composition; assay type: biochemical
Procedure: (§1) Control saccharification reactions containing equivalent methanol-containing buffer concentrations, 2% and 10% (v/v) methanol, or no methanol, were performed on each 96-well plate. […] All experiments were performed in triplicate, unless otherwise indicated.
(§2) The filtrates were analyzed for sugar content as described below. […] Data were processed using MICROSOFT EXCEL® software (Microsoft, Richland, Wash., USA), or […]® software (Synergy Software, Reading, Pa., USA).
Similarly, the effect of each bicyclic compound tested in the absence of GH61 polypeptide was quantified by calculating the ratio of percent conversion for the T. reesei cellulase composition without supplemented GH61 polypeptide having cellulolytic enhancing activity in the presence of each compound to the percent conversion in the absence of each compound:
In general, the bicyclic compound effect(no GH61) was approximately 1, though the methanol solvent was inhibitory to cellulolysis (Example 3).

[2] = tested on: Trichoderma reesei cellulase composition; assay type: biochemical; conditions: for GH61 effect: 2% methanol
Procedure: as §1, §2
[formula] where 1.111 represents the mass conversion factor accounting for the hydration of glucose produced from the cellulose polymer. The fractional hydrolysis is defined herein as the conversion expressed as a fraction rather than as a percent (i.e., % conversion/100).
[formula] […] Thus for saccharification reactions where only the presence of a bicyclic compound differs, a difference in GH61 effect can be attributed to the effect of the bicyclic compound on the cellulolytic enhancing effect of the GH61 polypeptide.

Row | Molecule | effect on saccharification by the T. reesei cellulase composition ([1]; 2% and 10% (v/v) methanol) | bicyclic compound effect(no GH61) ([1]; 2% methanol, 3 days) | bicyclic compound effect(no GH61) ([1]; 2% methanol, 7 days) | bicyclic compound effect(no GH61) ([1]; 10% methanol, 3 days) | bicyclic compound effect(no GH61) ([1]; 10% methanol, 7 days) | GH61 effect ([2]; 3 days of hydrolysis) | GH61 effect ([2]; 7 days of hydrolysis) | GH61 effect (Equation 4) ([2]; 10% methanol, 3 days) | percent conversion in the presence of 50% (w/w) T. aurantiacus GH61A polypeptide ([2]; 10% methanol, 3 days of hydrolysis) [%] | percent conversion in the presence of 50% (w/w) T. aurantiacus GH61A polypeptide ([2]; 10% methanol, 7 days of hydrolysis) [%] | percent conversion in the presence of 50% (w/w) T. aurantiacus GH61A polypeptide ([2]; 3 days of hydrolysis, no bicyclic compound, no methanol, averaged over all plates) [%] | GH61 effect (Equation 4) ([2]; 3 days of saccharification, no bicyclic compound, no methanol) | percent conversion in the presence of 50% (w/w) T. aurantiacus GH61A polypeptide ([2]; 7 days of hydrolysis, no bicyclic compound, no methanol, averaged over all plates) [%] | GH61 effect (Equation 4) ([2]; 7 days of saccharification, no bicyclic compound, no methanol) | GH61 effect on AVICEL ([2]; in the absence of bicyclic compounds)
1 | CO [methanol] | inhibited saccharification | 0.93 | 0.90 | 0.43 | 0.35 |  |  |  |  |  |  |  |  |  | 
2 | B1 |  |  |  |  |  | 0.98±0.078 | 1.01±0.06 | 1.00±0.068 | 11.8±0.379 | 15.1±0.388 | 26.2±1.17 | 0.98±0.064 | 41.4±1.67 | 0.99±0.051 | 1

Reference: patent US9458483B2, “Compositions comprising a polypeptide having cellulolytic enhancing activity and a bicyclic compound and uses thereof” (Novozymes, Inc., priority 2010, dated 2016)
